According to the Immune Epitope Database (IEDB):

molecular target: HLA-B*07:02; assay: IEDB peptide-MHC binding, purified MHC/competitive/radioactivity; ≥ and ≤ were set here for values at or beyond the usual limits of such assays; details: source organism: Bordetella pertussis

Row | Sequence | IC50 [µM]
1 | APQAAPLSI | 2.21
2 | SPRRARRAL | 0.0138

molecular target: HLA-A*02:01; assay: as above; details: source organism: Bordetella pertussis

Row | Sequence | IC50 [µM]
3 | ALMLACTGL | 10.8
4 | LAMPWTFHA | 1.17
5 | LLNAGGTLL | 2.57
6 | VLAPRLYLT | 7.98
7 | YQTYTEWSV | 0.384

molecular target: HLA-B*53:01; assay: as above; details: source organism: Bordetella pertussis

Row | Sequence | IC50 [µM]
8 | APQAAPLSI | 42.4
9 | GLYQTYTEW | 69.9
10 | LAWALMLAC | 6.64
11 | TFTGKVTNG | 39.9
12 | TPFDIKLKE | 34.7
13 | TPFIIKLKD | ≥ 78.2
14 | YYDYEDATF | 69.9

molecular target: HLA-B*44:03; assay: as above; details: source organism: Bordetella pertussis

Row | Sequence | IC50 [µM]
15 | IESKISQSV | 39.9
16 | QQVQVLQRQ | 15.8

molecular target: HLA-B*57:01; assay: as above; details: source organism: Bordetella pertussis

Row | Sequence | IC50 [µM]
17 | GLYQTYTEW | 41.4
18 | ISVRVHVSK | 2.74
19 | ITNKRAALI | 40

molecular target: HLA-B*35:01; assay: as above; details: source organism: Bordetella pertussis

Row | Sequence | IC50 [µM]
20 | AAGFDPEVQ | 32.7
21 | LAAIASAAH | 49.8
22 | LANDGTIVI | 5.87
23 | LAPTVGVAF | 7.6
